Assay results: patent US20260028409A1 (Bristol-Myers Squibb, published 2026)
Blank lines part the entries; values can stand above or below the binder they belong to.

Tests used:
[1] = target: T1, BSA-conjugated peptide corresponding to the N-terminal 35 amino acid residues of hCCR8 (human, two sulfated tyrosine residues (positions not stated for this peptide); conjugated to bovine serum albumin (BSA)); assay: ELISA, hybridoma supernatant on plate-coated BSA-conjugated sulfated N-terminal peptide (2 ug/ml)
T1 construct: Coated at 2 ug/ml on ELISA plates; also called BSA-conjugated CCR8 N-terminal peptide; sulfated N-terminal peptide of CCR8 conjugated to BSA
Experimental: To broadly characterize the epitopes of confirmed CCR8-specific Abs, hybridoma culture supernatants were screened by ELISA to measure binding to hCCR8 N-terminal peptides. Briefly, a BSA-conjugated peptide corresponding to the N-terminal 35 amino acid residues of hCCR8 (SEQ ID NO: 74; 2 μg/ml) representing the properly sulfated hCCR8 N-terminus was coated onto high-binding 96-well plates (Corning, Corning, NY) overnight at 4° C. Plates were blocked with BSA and washed, then 100 μl of culture supernatant were added for 30-60 min on a plate shaker. After washing, an appropriate anti-Fc secondary Ab conjugated to horseradish peroxidase (HRP) was added and left for 30-60 min. The plates were developed with ABTS or HRP substrate (SurModics, Eden Prairie, MN), and absorbance was measured at 405 or 650 nm on a Sunrise microplate reader (TECAN; Mannedorf, Switzerland).

[2] = target: T2, human C-C Motif Chemokine Receptor 8 (hCCR8) (human, UniProt P51685 1-355); assay: FACS on hCCR8-overexpressing Raji cells, fluorescent secondary Ab
T2 construct: also called human CCR8
Experimental: Four of the 6 mAbs bound to the hCCR8-expressing cells with an EC₅₀ below 1 nM (FIG. 2A; see Table 1) whereas no nonspecific binding was observed on the parental Raji cells (FIG. 2B).
FACS was used to evaluate the binding specificity of Abs binding to CCR8. […] Unbound dye was washed away and cells were plated into 96-well round bottom plates at a concentration of 5×10⁵ cells per well in FACS staining buffer (PBS w/o Ca/Mg, 2 mM EDTA, 0.2% BSA). Serial dilutions of mAbs that bind to an epitope other than an N-terminal epitope of CCR8 were added, starting at a concentration of 20 nM, and incubated on ice for 30 min. Unbound Abs were washed off and a detection secondary Ab was added and incubated for 30 min on ice. Additional washes were performed and Ab binding affinities were determined by measuring the fluorescence intensities of the secondary Abs on a LSRFortessa X-20 cytometer (BD Biosciences).

[3] = target: T2, human C-C Motif Chemokine Receptor 8 …; assay: % receptor occupancy against 4A19 concentration, flow cytometry on CCR8^+ Tregs in healthy donor whole blood; one of the two RO formats (direct/total or indirect/total)
Experimental: (§1) A head-to-head comparison of the two distinct RO assay formats was performed. Whole blood samples (180 μl) were pre-treated with various concentrations of the therapeutic mAb, mAb 4A19 (WO 2021/194942), mimicking different 4A19 dose treatment levels in subjects in the dose escalation arm of a Phase I clinical study (NCT04895709), and pre-incubated for 1 h at 37° C. Aliquots of the treated samples were transferred to 4° C. for periods of 24, 48 and 72h for specimen stability experiments.
(§2) After pre-incubation, tubes containing background samples were treated with a saturating concentration ([…]) of mAb 4A19, while other tubes (containing free or bound or FMO [fluorescence minus one] samples) were treated with PBS (equal volume as mAb 4A19) for 30 min at room temperature (RT). […]

[4] = target: T2, human C-C Motif Chemokine Receptor 8 …; assay: % receptor occupancy against 4A19 concentration, flow cytometry on CCR8^+ Tregs in healthy donor whole blood; the other of the two RO formats (direct/total or indirect/total)
Experimental: as §1, §2

[5] = target: T2, human C-C Motif Chemokine Receptor 8 …; assay: cell-based or functional assay

T1 sequence (peptide, as listed by the source): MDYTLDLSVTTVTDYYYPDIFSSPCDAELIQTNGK
T2 sequence (P51685 whole entry): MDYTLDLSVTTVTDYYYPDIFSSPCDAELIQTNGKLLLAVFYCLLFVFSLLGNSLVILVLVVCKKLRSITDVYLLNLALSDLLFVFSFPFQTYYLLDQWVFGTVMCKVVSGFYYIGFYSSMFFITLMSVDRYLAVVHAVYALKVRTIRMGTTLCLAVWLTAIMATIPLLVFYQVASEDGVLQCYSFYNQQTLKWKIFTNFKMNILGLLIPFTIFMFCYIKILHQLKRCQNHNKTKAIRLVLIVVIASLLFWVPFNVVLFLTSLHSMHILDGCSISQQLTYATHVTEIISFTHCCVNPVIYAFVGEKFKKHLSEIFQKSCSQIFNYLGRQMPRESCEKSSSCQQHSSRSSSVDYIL

B1: 23A14 hIgG1 (antibody, V domains shown)
VH: QVQLVESGGGVVQPGRSLRLSCAVSGLTFSSYAMHWVRQAPGKGLEWVAVISYDGNKKYNADSVKGRFTISRDNSKNTLYLQMNSLRAEDTAVYYCARAEGKGDYWGQGTLVTVSS
VL: EIVLTQSPATLSLSPGERATLSCRASQSVSSYLVWYQQKPGQAPRLLIYDASNRATGIPARFSGSGSGTDFTLTISSLEPEDFAVYYCQQRSNWPRTFGQGTKVEIKR
notes: Tested as hIgG1; also called 23A14-hG1
binding result [1]: no binding
EC50 [2]: 112 pM

B2: mAb 4A19 (antibody, human IgG1, kappa, V domains shown)
VH: QVQLVQSGAEVKKPGASVKVSCKASGYTFTDSEMHWVRQATGQGLEWMGAIQPETGGTAYNQKFKARVTMTRDTSISTAYMELSSLRSEDTAVYYCARRRRNFDYWGQGTLVTVSS
VL: DIVMTQTPLSLSVTPGQPASISCRSSQSLFHSSGNTYLHWYLQKPGQPPQLLIYKVSNRFSGVPDRFSGSGSGTDFTLKISRVEAEDVGVYYCSQSTHVPFTFGQGTKLEIKR
notes: Therapeutic anti-hCCR8 mAb of WO 2021/194942; also called therapeutic anti-CCR8 mAb 4A19; A419
EC50 [3]: 22 pM
EC50 [4]: 23 pM
Maximum Depletion (%) of CCR8^+ Tregs Relative to KLH Isotype Control; Endometrial cancer [5]: 69%
Maximum Depletion (%) of CCR8^+ Tregs Relative to KLH Isotype Control; Head and neck squamous cell carcinoma [5]: 25%

Results, then the binder that gave them:

binding result [1]: no binding
EC50 [2]: 80.7 pM
B3: 21C17 mIgG2a (antibody, V domains shown)
VH: VVQLQQSGPVLVKPGASVKMSCAASGYTFTDNYINWVKQRHGKSLEWIGVINPYNGLTAYDQNFKGKATLTVDKSSSTAYMALNSLTSEASAVYYCARRYGGTPVRYFDVWGTGTTVTVSS
VL: DVVLTQTPLTLSVTIGQPASISCKSSQSLLDSSGKTYLNWLLQRPGQSPKRLIYLVSKLDSGVPDRFSGSGSGTDFTLKFSRVEAEDLGVYYCWQATHFPWSFGGGSKLEVKR
notes: Used unlabeled or conjugated to BV421; also called mAb 21C17; 21C17-mG2a

binding result [1]: no binding
EC50 [2]: 81.5 pM
B4: 22B13 mIgG2a (antibody, V domains shown)
VH: B3 VH
VL: DIQMTQTASSLSASLGARVTISCRASQDISNYLNWYQQKPDGTFELLIYYTSRLHSGVPSRFSGSGSGTDYSLTITNLEQEDIATYFCQQGETLPWTFGGGTKLEIKR
notes: also called 22B13-mG2a
